Among the targets are native CD4 (human) (UniProt P01730); CD3 epsilon (human) (UniProt P07766); wild-type CD8 protein (UniProt P01732); CD8/zeta chimera (human) (UniProt P01732).
What all share (test): cell-based or functional assay
For experiment [1], the target named is Jurkat Ti β chain (human).
The target in experiment [2] is CD4-zeta chimeric receptor F3 (human) (UniProt P01730).
Experiment [3] deals with CD4-zeta chimeric receptor F2 (human) (UniProt P01730).
Experiment [4] concerns the target human HLA Class 1 antigens.

This note sets out measurements from patent US6407221.

Some results are limits rather than exact numbers.

Chain of UniProt P01732 (P01732 other isoform, or with tags, fused parts or gaps mutant): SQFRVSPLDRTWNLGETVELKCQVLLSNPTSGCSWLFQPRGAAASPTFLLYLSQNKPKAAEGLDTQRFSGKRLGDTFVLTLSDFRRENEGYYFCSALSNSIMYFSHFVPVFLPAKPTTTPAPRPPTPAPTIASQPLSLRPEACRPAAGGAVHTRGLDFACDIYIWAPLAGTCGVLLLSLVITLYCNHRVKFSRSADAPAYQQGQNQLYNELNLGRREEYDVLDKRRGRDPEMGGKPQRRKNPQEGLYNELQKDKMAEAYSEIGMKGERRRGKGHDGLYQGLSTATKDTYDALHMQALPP

Turning to C305 (antibody), in experiment [1], the IL-2 (Units/ml), JCD8/zeta 2, C305 + PMA, experiment #1 was 3.7 Units/ml; the IL-2 (Units/ml), JCD8/zeta 2, C305 + PMA, experiment #2 is 2.1 Units/ml; the IL-2 (Units/ml), Jurkat CD8, C305 + PMA, experiment #1 was determined as 13.5 Units/ml; the IL-2 (Units/ml), Jurkat CD8, C305 + PMA, experiment #2 came out at 9.1 Units/ml. The same molecule had an internalization of the TCR after overnight incubation of JCD8/zeta 2 with saturating C305 in experiment [1] of 94%.

Turning to OKT4A (antibody), in experiment [2], the IL2 produced relative to stimulation with Ionomycin, Jurkat clone F3/2.2 (relative to Ionomycin = 100) turned out to be 160; the IL2 produced relative to stimulation with Ionomycin, Jurkat clone F3/2.7 (relative to Ionomycin = 100) was 210; the absolute level of IL2 produced, Jurkat clone F3/2.2 is 1200 pg/mL; the absolute level of IL2 produced, Jurkat clone F3/2.7 is 671 pg/mL. Besides, in experiment [3], the IL2 produced relative to stimulation with Ionomycin, Jurkat clone F2/1A11 (relative to Ionomycin = 100) turned out to be 86; the IL2 produced relative to stimulation with Ionomycin, Jurkat clone F2/1D1 (relative to Ionomycin = 100) stood at 60; the absolute level of IL2 produced, Jurkat clone F2/1A11 turned out to be 543 pg/mL; the absolute level of IL2 produced, Jurkat clone F2/1D1 was determined as 683 pg/mL. In the experiment with native CD4 (human), the IL2 produced relative to stimulation with Ionomycin, Jurkat clone CD4/1F7 (relative to Ionomycin = 100) came out at 0.3; the IL2 produced relative to stimulation with Ionomycin, Jurkat clone CD4/4.1 (relative to Ionomycin = 100) amounted to 2; the absolute level of IL2 produced, Jurkat clone CD4/1F7 turned out to be 19 pg/mL; the absolute level of IL2 produced, Jurkat clone CD4/4.1 stood at 9 pg/mL.

In experiment [4], W6/32 (antibody) returned an IL2 produced relative to stimulation with Ionomycin, Jurkat clone CD4/1F7 (relative to Ionomycin = 100) of 0.1; an IL2 produced relative to stimulation with Ionomycin, Jurkat clone CD4/4.1 (relative to Ionomycin = 100) of 0.7; an IL2 produced relative to stimulation with Ionomycin, Jurkat clone F2/1A11 (relative to Ionomycin = 100) of 10; an IL2 produced relative to stimulation with Ionomycin, Jurkat clone F2/1D1 (relative to Ionomycin = 100) of 11. In experiment [4], the IL2 produced relative to stimulation with Ionomycin, Jurkat clone F3/2.2 (relative to Ionomycin = 100) was 3; the IL-2 (Units/ml), JCD8/zeta 2, W6/32 + PMA, experiment #1 was less than 0.1 Units/ml; the IL-2 (Units/ml), JCD8/zeta 2, W6/32 + PMA, experiment #2 is less than 0.1 Units/ml; the IL-2 (Units/ml), Jurkat CD8, W6/32 + PMA, experiment #1 was less than 0.1 Units/ml. Also, in experiment [4], the IL-2 (Units/ml), Jurkat CD8, W6/32 + PMA, experiment #2 was less than 0.1 Units/ml; the absolute level of IL2 produced, Jurkat clone CD4/1F7 turned out to be 3 pg/mL; the absolute level of IL2 produced, Jurkat clone CD4/4.1 was 3 pg/mL; the absolute level of IL2 produced, Jurkat clone F2/1A11 was found to be 104 pg/mL. In experiment [4], the absolute level of IL2 produced, Jurkat clone F2/1D1 was found to be 123 pg/mL; the absolute level of IL2 produced, Jurkat clone F3/2.2 turned out to be 19 pg/mL; the absolute level of IL2 produced, Jurkat clone F3/2.7 turned out to be 0 pg/mL.

On to OKT3 (antibody), for which, in the experiment with CD3 epsilon (human), the IL2 produced relative to stimulation with Ionomycin, Jurkat clone CD4/1F7 (relative to Ionomycin = 100) amounted to 38; the IL2 produced relative to stimulation with Ionomycin, Jurkat clone CD4/4.1 (relative to Ionomycin = 100) worked out at 65; the IL2 produced relative to stimulation with Ionomycin, Jurkat clone F2/1A11 (relative to Ionomycin = 100) is 51; the IL2 produced relative to stimulation with Ionomycin, Jurkat clone F2/1D1 (relative to Ionomycin = 100) amounted to 59. In the experiment with CD3 epsilon (human), the IL2 produced relative to stimulation with Ionomycin, Jurkat clone F3/2.2 (relative to Ionomycin = 100) came to 65; the IL2 produced relative to stimulation with Ionomycin, Jurkat clone F3/2.7 (relative to Ionomycin = 100) stood at 92; the absolute level of IL2 produced, Jurkat clone CD4/1F7 turned out to be 2100 pg/mL; the absolute level of IL2 produced, Jurkat clone CD4/4.1 worked out at 309 pg/mL. Moreover, in the experiment with CD3 epsilon (human), the absolute level of IL2 produced, Jurkat clone F2/1A11 was determined as 918 pg/mL; the absolute level of IL2 produced, Jurkat clone F2/1D1 worked out at 671 pg/mL; the absolute level of IL2 produced, Jurkat clone F3/2.2 stood at 481 pg/mL; the absolute level of IL2 produced, Jurkat clone F3/2.7 turned out to be 295 pg/mL.

B1: OKT8 (antibody, from another filing, V domains shown)
VH: EVQLQQSGAELVKPGASVKLSCTASGFNIKDTYIHFVRQRPEQGLEWIGRIDPANDNTLYASKFQGKATITADTSSNTAYMHLCSLTSGDTAVYYCGRGYGYYVFDHWGQGTTLTVSS
VL: DVQINQSPSFLAASPGETITINCRTSRSISQYLAWYQEKPGKTNKLLIYSGSTLQSGIPSRFSGSGSGTDFTLTISGLEPEDFAMYYCQQHNENPLTFGAGTKLELK
Consider B1, for which, in the experiment with wild-type CD8 protein, the IL-2 (Units/ml), Jurkat CD8, OKT8 + PMA, experiment #1 was less than 0.1 Units/ml and the IL-2 (Units/ml), Jurkat CD8, OKT8 + PMA, experiment #2 is less than 0.1 Units/ml. Moreover, in the experiment with CD8/zeta chimera (human), the IL-2 (Units/ml), JCD8/zeta 2, OKT8 + PMA, experiment #1 worked out at 6.8 Units/ml and the IL-2 (Units/ml), JCD8/zeta 2, OKT8 + PMA, experiment #2 came out at 7 Units/ml.
